Reference: article PMC12956874
Values belong to the substance of their own block, whether it stands above or below them.

Legend:
[1] = biological target: PEX19-His, full-length (T. brucei); assay: AlphaScreen or HTRF
[2] = biological target: PEX19-His 1 to 50 (T. brucei); assay: AlphaScreen or HTRF
[3] = biological target: PEX38_(65–134) (T. brucei); assay: ITC; titration of PEX38 with PEX19; technical triplicates
[4] = biological target: PEX19-His, full-length (T. brucei); assay: AlphaScreen or HTRF; AlphaScreen displacement assay: equimolar PEX19-His and GST-PEX3Δ1-44 (30 nM), increasing amounts of untagged PEX38
[5] = biological target: TbPEX38 (65-134) (T. brucei); assay: ITC; 40 µM TbPEX38 titrated with 440 µM TbPEX19; triplicates; 25°C; 20 mM Tris pH 7.5, 50 mM NaCl; one-site binding model; MicroCal PEAQ-ITC

Kd [3]: 3000 nM
Substance: PEX19_(1–50) with a C-terminal SGGY extension (domain or fragment)

IC50 [4]: 446 nM
Substance: PEX38_(65–134) (domain or fragment)

Second part, the substance before the results:

Substance: GST-PEX3Δ1-44 (domain or fragment)
other [1]: 30 fold

Substance: GST-PEX38, full-length (natural protein)
other [2]: 10 fold

Substance: TbPEX19 (1-50-SGGY) (domain or fragment)
Kd [5]: 2890 nM

Substance: untagged PEX38, full-length (natural protein)
IC50 [4]: 950 nM
